The record followed here is US20210187118A1.

Experiment [1] concerns the target TF-glycosylated PDTR MUC1 tandem repeat peptide …-T(TF)-…. Put plainly: antigen ELISA on TF-glycosylated PDTR MUC1 peptide, protein A purified antibodies. A general note: In an ELISA, binding on a coated surface is turned into a signal by an enzyme label.
Experiment [2] has as its target Tn-glycosylated PDTR MUC1 tandem repeat peptide …-T(Tn)-…. The experiment is described as follows: antigen ELISA on Tn-glycosylated PDTR MUC1 peptide, protein A purified antibodies.

Sequence of Tn-glycosylated PDTR MUC1 tandem repeat peptide …-T(Tn)-… (peptide, as listed by the source limits assumed): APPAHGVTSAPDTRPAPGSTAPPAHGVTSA
Sequence of TF-glycosylated PDTR MUC1 tandem repeat peptide …-T(TF)-… (peptide, as listed by the source limits assumed): as above

What is called EC50 (read off the curve) is the midpoint of the concentration-response curve. The low end stands for greater potency, the high end for weaker potency. On to PankoMab N54W (antibody), for which the half-maximal effective concentration (EC50 (read off the curve)) came out at 8 ng/mL in experiment [1] and 10 ng/mL in experiment [2].
